According to patent US20160002357A1 (Pfizer, published 2016):

Key:
[1] = molecular target: T1, human P-cadherin, cell surface expressed (human, UniProt P22223 108-829); assay: cell-based or functional assay
[2] = molecular target: T1, human P-cadherin, cell surface expressed; assay: cell-based or functional assay; remark: listed apart in the source
[3] = molecular target: T2, cynomolgus monkey P-cadherin ECD (cynomolgus monkey); assay: SPR
T2 construct: extracellular domain; also called cyno P-cadherin ECD; Cyno P-cadherin

[4] = molecular target: human P-cadherin expressed on the cell surface (human, UniProt P22223 108-829); assay: cell-based or functional assay
human P-cadherin expressed on the cell surface, sequence (P22223 108-829): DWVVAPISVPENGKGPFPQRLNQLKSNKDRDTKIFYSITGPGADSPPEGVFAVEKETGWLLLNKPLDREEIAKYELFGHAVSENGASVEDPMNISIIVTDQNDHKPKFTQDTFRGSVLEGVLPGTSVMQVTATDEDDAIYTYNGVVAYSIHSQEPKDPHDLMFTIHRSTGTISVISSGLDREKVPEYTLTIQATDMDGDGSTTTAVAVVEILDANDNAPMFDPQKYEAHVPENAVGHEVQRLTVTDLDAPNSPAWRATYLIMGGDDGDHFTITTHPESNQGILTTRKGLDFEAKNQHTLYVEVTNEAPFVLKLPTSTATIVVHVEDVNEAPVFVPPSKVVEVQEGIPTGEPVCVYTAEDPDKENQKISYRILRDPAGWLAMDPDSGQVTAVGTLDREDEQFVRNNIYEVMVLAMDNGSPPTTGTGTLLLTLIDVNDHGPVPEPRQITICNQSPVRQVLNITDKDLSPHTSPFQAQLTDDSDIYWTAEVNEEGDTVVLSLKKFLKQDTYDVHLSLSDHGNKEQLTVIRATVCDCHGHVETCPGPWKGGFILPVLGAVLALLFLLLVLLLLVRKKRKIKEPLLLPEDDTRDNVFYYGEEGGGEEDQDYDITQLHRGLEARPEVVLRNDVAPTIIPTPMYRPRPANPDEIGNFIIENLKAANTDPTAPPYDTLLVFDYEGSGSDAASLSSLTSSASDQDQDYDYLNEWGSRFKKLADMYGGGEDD

T1 sequence (P22223 108-829): as above

Row | Binder | T cell directed cytotoxicity EC50, CHO-CDh3 (24 h), LDH release, human PBMC E:T 30:1 [1] [nM] | T cell directed cytotoxicity EC50, H1650 (24 h), LDH release, human PBMC E:T 30:1 [1] [nM] | T cell directed cytotoxicity EC50, H1650 (40 h), LDH release, human PBMC E:T 30:1 [1] [nM] | T cell directed cytotoxicity EC50, H1650 LDH 24 hr 30:1 D41183 [2] [nM] | T cell directed cytotoxicity EC50, HCT116 Luc 48 hr 10:1 D43905 [2] [nM] | Kd [3] [nM] | T cell Cytotoxicity [4] [nM]
1 | 35 EK-DART (P-CAD 35 x CD3-2) (bispecific antibody) chain 1: QSVLTQPPSVSAAPGQKVTISCSGSSSNIGNNYVSWYQQLPGTAPKLLIYDNNKRPSGIPDRFSGSKSGTSATLGITGLQTGDEADYYCGTWDSSLSAVVFGGGTKLTVLGGGSGGGGEVQLVESGGGLVQPGGSLRLSCAASGFTFNTYAMNWVRQAPGKGLEWVARIRSKYNNYATYYADSVKDRFTISRDDSKNSLYLQMNSLKTEDTAVYYCVRHGNFGNSYVSWFAYWGQGTLVTVSSGGCGGGKVAALKEKVAALKEKVAALKEKVAALKE chain 2: QAVVTQEPSLTVSPGGTVTLTCRSSTGAVTTSNYANWVQQKPGQAPRGLIGGTNKRAPWTPARFSGSLLGGKAALTITGAQAEDEADYYCALWYSNLWVFGGGTKLTVLGGGGSGGGGEVQLVQSGAEVKKPGASVKVSCKASGYTFTSYGISWVRQAPGQGLEWMGWISAYNGNTNYAQKLQGRVTMTTDTSTSTAYMELRSLRSDDTAVYYCATIDTASAFDIWGQGTMVTVSSGGCGGGEVAALEKEVAALEKEVAALEKEVAALEK | 0.0398 | 0.501 | 0.0532 | 0.102 | 0.205 | – | –
2 | LP-DART #4 (bispecific antibody, also called P-cadherin LP-DART construct #4 (P-CAD 35, CD3-2)) chain 1: QAVVTQEPSLTVSPGGTVTLTCRSSTGAVTTSNYANWVQQKPGQAPRGLIGGTNKRAPWTPARFSGSLLGGKAALTITGAQAEDEADYYCALWYSNLWVFGGGTKLTVLGGGGSGGGGEVQLVQSGAEVKKPGASVKVSCKASGYTFTSYGISWVRQAPGQGLEWMGWISAYNGNTNYAQKLQGRVTMTTDTSTSTAYMELRSLRSDDTAVYYCATIDTASAFDIWGQGTMVTVSSGGTGGGEPKSSDKTHTCPPCPAPEAAGAPSVFLFPPKPKDTLMISRTPEVTCVVVDVSHEDPEVKFNWYVDGVEVHNAKTKPREEQYNSTYRVVSVLTVLHQDWLNGKEYKCKVSNKALPAPIEKTISKAKGQPREPQVCTLPPSREEMTKNQVSLWCLVKGFYPSDIAVEWESNGQPENNYKTTPPVLDSDGSFFLYSKLTVDKSRWQQGNVFSCSVMHEALHNHYTQKSLSLSPG chain 2: QSVLTQPPSVSAAPGQKVTISCSGSSSNIGNNYVSWYQQLPGTAPKLLIYDNNKRPSGIPDRFSGSKSGTSATLGITGLQTGDEADYYCGTWDSSLSAVVFGGGTKLTVLGGGSGGGGEVQLVESGGGLVQPGGSLRLSCAASGFTFNTYAMNWVRQAPGKGLEWVARIRSKYNNYATYYADSVKDRFTISRDDSKNSLYLQMNSLKTEDTAVYYCVRHGNFGNSYVSWFAYWGQGTLVTVSSGGTGGGEPKSSDKTHTCPPCPAPEAAGAPSVFLFPPKPKDTLMISRTPEVTCVVVDVSHEDPEVKFNWYVDGVEVHNAKTKPREEQYNSTYRVVSVLTVLHQDWLNGKEYKCKVSNKALPAPIEKTISKAKGQPREPQVYTLPPCREEMTKNQVSLSCAVKGFYPSDIAVEWESNGQPENNYKTTPPVLDSDGSFFLVSKLTVDKSRWQQGNVFSCSVMHEALHNHYTQKSLSLSPG | – | – | – | – | – | 128 | 2.45
3 | LP-DART #7 (bispecific antibody, also called P-cadherin LP-DART construct #7 (P-CAD 35, CD3-2)) chain 1: QAVVTQEPSLTVSPGGTVTLTCRSSTGAVTTSNYANWVQQKPGQAPRGLIGGTNKRAPWTPARFSGSLLGGKAALTITGAQAEDEADYYCALWYSNLWVFGGGTKLTVLGGGGSGGGGEVQLVQSGAEVKKPGASVKVSCKASGYTFTSYGISWVRQAPGQGLEWMGWISAYNGNTNYAQKLQGRVTMTTDTSTSTAYMELRSLRSDDTAVYYCATIDTASAFDIWGQGTMVTVSSGEPKSSDKTHTCPPCPAPEAAGAPSVFLFPPKPKDTLMISRTPEVTCVVVDVSHEDPEVKFNWYVDGVEVHNAKTKPREEQYNSTYRVVSVLTVLHQDWLNGKEYKCKVSNKALPAPIEKTISKAKGQPREPQVYTLPPCREEMTKNQVSLSCAVKGFYPSDIAVEWESNGQPENNYKTTPPVLDSDGSFFLVSKLTVDKSRWQQGNVFSCSVMHEALHNHYTQKSLSLSPG chain 2: QSVLTQPPSVSAAPGQKVTISCSGSSSNIGNNYVSWYQQLPGTAPKLLIYDNNKRPSGIPDRFSGSKSGTSATLGITGLQTGDEADYYCGTWDSSLSAVVFGGGTKLTVLGGGSGGGGEVQLVESGGGLVQPGGSLRLSCAASGFTFNTYAMNWVRQAPGKGLEWVARIRSKYNNYATYYADSVKDRFTISRDDSKNSLYLQMNSLKTEDTAVYYCVRHGNFGNSYVSWFAYWGQGTLVTVSSGEPKSSDKTHTCPPCPAPEAAGAPSVFLFPPKPKDTLMISRTPEVTCVVVDVSHEDPEVKFNWYVDGVEVHNAKTKPREEQYNSTYRVVSVLTVLHQDWLNGKEYKCKVSNKALPAPIEKTISKAKGQPREPQVCTLPPSREEMTKNQVSLWCLVKGFYPSDIAVEWESNGQPENNYKTTPPVLDSDGSFFLYSKLTVDKSRWQQGNVFSCSVMHEALHNHYTQKSLSLSPG | – | – | – | – | – | 96.6 | 2.85
4 | LP-DART #5 (bispecific antibody, also called P-cadherin LP-DART construct #5 (P-CAD 35, CD3-2)) chain 1: QAVVTQEPSLTVSPGGTVTLTCRSSTGAVTTSNYANWVQQKPGQAPRGLIGGTNKRAPWTPARFSGSLLGGKAALTITGAQAEDEADYYCALWYSNLWVFGGGTKLTVLGGGGSGGGGEVQLVQSGAEVKKPGASVKVSCKASGYTFTSYGISWVRQAPGQGLEWMGWISAYNGNTNYAQKLQGRVTMTTDTSTSTAYMELRSLRSDDTAVYYCATIDTASAFDIWGQGTMVTVSSGCPPCPAPEAAGAPSVFLFPPKPKDTLMISRTPEVTCVVVDVSHEDPEVKFNWYVDGVEVHNAKTKPREEQYNSTYRVVSVLTVLHQDWLNGKEYKCKVSNKALPAPIEKTISKAKGQPREPQVYTLPPCREEMTKNQVSLSCAVKGFYPSDIAVEWESNGQPENNYKTTPPVLDSDGSFFLVSKLTVDKSRWQQGNVFSCSVMHEALHNHYTQKSLSLSPG chain 2: QSVLTQPPSVSAAPGQKVTISCSGSSSNIGNNYVSWYQQLPGTAPKLLIYDNNKRPSGIPDRFSGSKSGTSATLGITGLQTGDEADYYCGTWDSSLSAVVFGGGTKLTVLGGGSGGGGEVQLVESGGGLVQPGGSLRLSCAASGFTFNTYAMNWVRQAPGKGLEWVARIRSKYNNYATYYADSVKDRFTISRDDSKNSLYLQMNSLKTEDTAVYYCVRHGNFGNSYVSWFAYWGQGTLVTVSSGCPPCPAPEAAGAPSVFLFPPKPKDTLMISRTPEVTCVVVDVSHEDPEVKFNWYVDGVEVHNAKTKPREEQYNSTYRVVSVLTVLHQDWLNGKEYKCKVSNKALPAPIEKTISKAKGQPREPQVCTLPPSREEMTKNQVSLWCLVKGFYPSDIAVEWESNGQPENNYKTTPPVLDSDGSFFLYSKLTVDKSRWQQGNVFSCSVMHEALHNHYTQKSLSLSPG | – | – | – | – | – | 62.1 | 0.74
5 | 20 EK-DART (P-CAD 20 x CD3-2) (bispecific antibody) chain 1: AIQMTQSPSSLSASVGDRVTITCRASQSIGKYLNWYQQIPGKAPKLLIYTASTLQTGVPSRFSGSGSGTDFTLTIVSLQPEDFATYYCQQSFNTPRTFGQGTKVEIKGGGSGGGGEVQLVESGGGLVQPGGSLRLSCAASGFTFNTYAMNWVRQAPGKGLEWVARIRSKYNNYATYYADSVKDRFTISRDDSKNSLYLQMNSLKTEDTAVYYCVRHGNFGNSYVSWFAYWGQGTLVTVSSGGCGGGKVAALKEKVAALKEKVAALKEKVAALKE chain 2: QAVVTQEPSLTVSPGGTVTLTCRSSTGAVTTSNYANWVQQKPGQAPRGLIGGTNKRAPWTPARFSGSLLGGKAALTITGAQAEDEADYYCALWYSNLWVFGGGTKLTVLGGGGSGGGGEVQLVQSGAEVKKPGASVKVSCKASGYTFTGYYMHWVRQAPGQGLEWMGRINPNSGGTNYAQKFQGRVTMTRDTSISTAYMELSRLRSDDTAVYYCAKGSGSGAFDIWGQGTMVTVSSGGCGGGEVAALEKEVAALEKEVAALEKEVAALEK | 169 | 36.4 | – | – | – | – | –
6 | LP-DART #6 (bispecific antibody, also called P-cadherin LP-DART construct #6 (P-CAD 35, CD3-2)) chain 1: QAVVTQEPSLTVSPGGTVTLTCRSSTGAVTTSNYANWVQQKPGQAPRGLIGGTNKRAPWTPARFSGSLLGGKAALTITGAQAEDEADYYCALWYSNLWVFGGGTKLTVLGGGGSGGGGEVQLVQSGAEVKKPGASVKVSCKASGYTFTSYGISWVRQAPGQGLEWMGWISAYNGNTNYAQKLQGRVTMTTDTSTSTAYMELRSLRSDDTAVYYCATIDTASAFDIWGQGTMVTVSSGGTGGCPPCPAPEAAGAPSVFLFPPKPKDTLMISRTPEVTCVVVDVSHEDPEVKFNWYVDGVEVHNAKTKPREEQYNSTYRVVSVLTVLHQDWLNGKEYKCKVSNKALPAPIEKTISKAKGQPREPQVYTLPPCREEMTKNQVSLSCAVKGFYPSDIAVEWESNGQPENNYKTTPPVLDSDGSFFLVSKLTVDKSRWQQGNVFSCSVMHEALHNHYTQKSLSLSPG chain 2: QSVLTQPPSVSAAPGQKVTISCSGSSSNIGNNYVSWYQQLPGTAPKLLIYDNNKRPSGIPDRFSGSKSGTSATLGITGLQTGDEADYYCGTWDSSLSAVVFGGGTKLTVLGGGSGGGGEVQLVESGGGLVQPGGSLRLSCAASGFTFNTYAMNWVRQAPGKGLEWVARIRSKYNNYATYYADSVKDRFTISRDDSKNSLYLQMNSLKTEDTAVYYCVRHGNFGNSYVSWFAYWGQGTLVTVSSGGTGGCPPCPAPEAAGAPSVFLFPPKPKDTLMISRTPEVTCVVVDVSHEDPEVKFNWYVDGVEVHNAKTKPREEQYNSTYRVVSVLTVLHQDWLNGKEYKCKVSNKALPAPIEKTISKAKGQPREPQVCTLPPSREEMTKNQVSLWCLVKGFYPSDIAVEWESNGQPENNYKTTPPVLDSDGSFFLYSKLTVDKSRWQQGNVFSCSVMHEALHNHYTQKSLSLSPG | – | – | – | – | – | 86.6 | 1.29
